The values below come from US20090226466A1.

Test [1] concerns the target murine FcγRIII on cells (murine) (UniProt P08508). Put plainly: cell-based or functional assay.
Test [2] concerns the target full-length murine NKG2D on cells (murine) (UniProt O54709). Description: cell-based or functional assay.
Test [3] deals with human NKG2D on CHO transfectant cells (human) (UniProt P26718). Put plainly: flow cytometry on human NKG2D-CHO transfectant cells.
In test [4] the target is full-length murine NKG2D on cells (murine) (UniProt O54709). Put plainly: flow cytometry on stable mNKG2D transfectant HEK293 cells.
The target in test [5] is soluble form of murine NKG2D representing residues 88-232, N'-FLAG tagged (murine) (UniProt O54709). Put plainly: ELISA, mNKG2D immobilized on plate, goat anti-mouse F(ab')2-HRP detection.
In test [6] the target is full-length murine NKG2D on cells (murine) (UniProt O54709). Description: flow cytometry on NK cells from mouse splenocytes, biotinylated antibody and streptavidin.
Test [7] shares this target. Put plainly: flow cytometry on stable mNKG2D transfectant HEK293 cells, isotype control.

UniProt P26718, sequence (P26718 whole entry): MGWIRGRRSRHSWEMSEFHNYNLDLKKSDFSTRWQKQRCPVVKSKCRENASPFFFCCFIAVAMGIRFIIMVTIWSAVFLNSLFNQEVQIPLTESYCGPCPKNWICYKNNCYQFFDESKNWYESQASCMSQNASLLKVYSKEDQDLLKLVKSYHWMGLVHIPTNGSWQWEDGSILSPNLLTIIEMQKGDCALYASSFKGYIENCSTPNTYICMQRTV
UniProt P08508, sequence (P08508 31-261): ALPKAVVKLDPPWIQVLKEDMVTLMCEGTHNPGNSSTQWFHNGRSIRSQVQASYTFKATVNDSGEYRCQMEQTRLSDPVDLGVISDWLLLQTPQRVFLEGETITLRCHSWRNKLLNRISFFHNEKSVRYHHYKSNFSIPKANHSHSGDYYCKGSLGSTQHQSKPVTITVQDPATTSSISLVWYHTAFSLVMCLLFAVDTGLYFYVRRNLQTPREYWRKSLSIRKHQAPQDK

For the substance Anti-HER2 (4D5 mIgG2a) (antibody), the killing of BT474 cells by murine DX5+ NK cells (lactate dehydrogenase release), E:T ratio of 50:1, 6.7 nM antibody in test [1] was determined as 15%.

With “Anti-HER2*-MicB fusion antibody (D265A + N297A) (from UniProt Q29980 16-297)”, the killing of BT474 cells by murine DX5+ NK cells (lactate dehydrogenase release), E:T ratio of 50:1, 6.7 nM antibody in test [2] came out at 15%. Besides, the MFI in test [3] was found to be 61.7 MFI; in test [4], 11 MFI. Also, the EC50 in test [5] came to 0.3 nM.

Consider Anti-HER2-H60 fusion antibody, for which, in test [2], the killing of BT474 cells by splenic NK cells of murine FcγRIII knockout mice, E:T ratio 20:1 came to 10%. The results for the MFI in test [4] and in test [6] were 100 MFI and 48.9 MFI, respectively. Moreover, the EC50 in test [5] amounted to 0.2 nM.

With “Anti-HER2-MicB fusion antibody (from UniProt Q29980 16-297)”, the killing of BT474 cells by splenic NK cells of murine FcγRIII knockout mice, E:T ratio 20:1 in test [2] was 10%. The MFI in test [3] amounted to 61.7 MFI; in test [4], 11 MFI. In addition, the EC50 in test [5] worked out at 0.3 nM.

As for mouse IgG2a control antibody, the MFI in test [7] is 4 MFI.
